Experimental findings from article PMC3678298, “Catalytic preference of Salmonella typhimurium LT2 sialidase for N-acetylneuraminic acid residues over N-glycolylneuraminic acid residues^” (FEBS Open Bio, 2013) are described below.

In this data set the test system is Cc1cc(=O)oc2cc(O[C@@]3(C(=O)O)C[C@H](O)[C@@H](NC(=O)CO)[C@H]([C@H](O)[C@H](O)CO)O3)ccc12. The data set is described as follows: purified protein. To be noted: 80 mM sodium acetate pH 6.0, 80 mM NaCl, 0.8 mg/ml BSA, 37 °C, 10 mU/ml enzyme.

Source text: 4MU fluorescence; Lineweaver-Burk on STSA (Salmonella typhimurium LT2 sialidase)

As usually defined, the Km is the substrate concentration at which the rate is half of its maximum. As a reminder, the kcat is the maximal rate divided by the concentration of active sites. For orientation: kcat/Km means the turnover number divided by the Michaelis constant. For the substance “STSA (Salmonella typhimurium LT2 sialidase) (Salmonella enterica subsp. enterica serovar Typhimurium str. LT2)”, the Km is listed as 3.10 mM, the kcat was 40 s⁻¹ and the kcat/Km is 13100 M⁻¹ s⁻¹.
